To fix the notation:
B3: HspB6 Δ26–30 (natural protein, human, UniProt O14558 1-160, looked up)
chain: MEIPVPVQPSWLRRASAPLPGLSAPQRFGEGLLEAELAALCPTTLAPYYLRAPSVALPVAQVPTDPGHFSVLLDVKHFSPEEIAVKVVGEHVEVHARHEERPDEHGFVAREFHRRYRLPPGVDPAAVTSALSPEGVLSIQAAPASAQAPPPAAAK
notes: also called Δ HspB6; Δ mutant of HspB6; source: E. coli BL21(DE3) pLysS, purified (ammonium sulfate, HiTrap Phenyl-Sepharose, Superdex 200)
B5: HspB6 R27A (natural protein, human, UniProt O14558 1-160, looked up)
chain: MEIPVPVQPSWLRRASAPLPGLSAPGALFDQRFGEGLLEAELAALCPTTLAPYYLRAPSVALPVAQVPTDPGHFSVLLDVKHFSPEEIAVKVVGEHVEVHARHEERPDEHGFVAREFHRRYRLPPGVDPAAVTSALSPEGVLSIQAAPASAQAPPPAAAK
notes: also called R/A HspB6; R/A mutant of HspB6; source: E. coli BL21(DE3) pLysS, purified (ammonium sulfate, HiTrap Phenyl-Sepharose, Superdex 200)

Data set [1] has as its target T1, wild-type human small heat shock protein HspB6 (human, UniProt O14558 1-160).
T1 construct: HspB6, human, UniProt O14558; WT cDNA in pET22b or pET23a, parent of the full-size mutants; No tag is named; also called WT HspB6; source: E. coli BL21(DE3) pLysS, purified (ammonium sulfate, HiTrap Phenyl-Sepharose, Superdex 200)
T1 sequence (looked up): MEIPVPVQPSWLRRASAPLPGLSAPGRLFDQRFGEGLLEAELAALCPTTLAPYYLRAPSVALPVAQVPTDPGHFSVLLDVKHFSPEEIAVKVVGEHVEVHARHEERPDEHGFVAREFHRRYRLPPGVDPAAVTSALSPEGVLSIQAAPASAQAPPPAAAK
The experiment in a line: SEC; equimolar mixture (30–40 µM each), reduced, preincubated 1 h at 42 °C in buffer B (20 mM Tris-acetate, 150 mM NaCl, 0.1 mM EDTA, 15 mM mercaptoethanol); Superdex 200 HR 10/30; fractions on SDS gels; correlation coefficient and molar ratio from band intensities. Conditions: both partners purified.

In the data set “HspB6 Δ26–30” the target is B3. Described as above. The settings on record: both partners purified.
The data set “HspB6 R27A” concerns the target B5. The data set is described as above. Conditions: both partners purified.
Data set [2] deals with the molecule itself. Nature of the data set: SEC; isolated protein on Superdex 200 HR 10/30 in buffer B; apparent molecular weight against standards. (In general: Size exclusion chromatography separates by hydrodynamic size, large species first.)
Data set [3] concerns the target T2, wild-type human small heat shock protein HspB6 (human), O14558.
T2 chain: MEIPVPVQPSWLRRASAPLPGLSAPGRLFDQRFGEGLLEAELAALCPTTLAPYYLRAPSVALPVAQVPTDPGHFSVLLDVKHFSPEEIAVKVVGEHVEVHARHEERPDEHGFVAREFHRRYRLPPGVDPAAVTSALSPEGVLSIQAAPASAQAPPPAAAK
The description is as above. Conditions: remark: other sources report otherwise.

What is called stoichiometry N is a count of units in the complex or per binding partner.

B1: wild-type human small heat shock protein HspB5 (natural protein, UniProt P02511 1-175, looked up)
chain: MDIAIHHPWIRRPFFPFHSPSRLFDQFFGEHLLESDLFPTSTSLSPFYLRPPSFLRAPSWFDTGLSEMRLEKDRFSVNLDVKHFSPEELKVKVLGDVIEVHGKHEERQDEHGFISREFHRKYRIPADVDPLTITSSLSSDGVLTVNGPRKQVSGPERTIPITREEKPAVTAAPKK
notes: WT cDNA in pET22b or pET23a, parent of the full-size mutants; No tag is named; Forms large homooligomers; also called WT HspB5; source: E. coli BL21(DE3) pLysS, purified (ammonium sulfate, HiTrap Q, Superdex 200)
Turning to B1, the correlation coefficient was found to be 0.99 in data set [1], 0.98 in the data set with HspB6 Δ26–30 and 0.99 with HspB6 R27A. The “stoichiometry N” value in data set [1] was approximately 2 HspB5/HspB6 molar ratio. In addition, the binding result in data set [2] is listed as “binds”.

B2: HspB5 R22A (natural protein, human, UniProt P02511 1-175, looked up)
chain: MDIAIHHPWIRRPFFPFHSPSALFDQFFGEHLLESDLFPTSTSLSPFYLRPPSFLRAPSWFDTGLSEMRLEKDRFSVNLDVKHFSPEELKVKVLGDVIEVHGKHEERQDEHGFISREFHRKYRIPADVDPLTITSSLSSDGVLTVNGPRKQVSGPERTIPITREEKPAVTAAPKK
notes: also called R/A HspB5; R/A mutant of HspB5; source: E. coli BL21(DE3) pLysS, purified (ammonium sulfate, HiTrap Q, Superdex 200)
With B2, the correlation coefficient in data set [1] is 0.99. Besides, in data set [2], the binding result is “binds”.
In the case of B3, the binding result in data set [2] is “binds”.

B4: wild-type human small heat shock protein HspB6, O14558 1-160 (natural protein)
chain: MEIPVPVQPSWLRRASAPLPGLSAPGRLFDQRFGEGLLEAELAALCPTTLAPYYLRAPSVALPVAQVPTDPGHFSVLLDVKHFSPEEIAVKVVGEHVEVHARHEERPDEHGFVAREFHRRYRLPPGVDPAAVTSALSPEGVLSIQAAPASAQAPPPAAAK
Regarding B4, the stoichiometry N in data set [3] came out at 2.
As for B5, in data set [2], the binding result is listed as “binds”.

B6: HspB5 Δ21–25 (natural protein, human, UniProt P02511 1-175, looked up)
chain: MDIAIHHPWIRRPFFPFHSPQFFGEHLLESDLFPTSTSLSPFYLRPPSFLRAPSWFDTGLSEMRLEKDRFSVNLDVKHFSPEELKVKVLGDVIEVHGKHEERQDEHGFISREFHRKYRIPADVDPLTITSSLSSDGVLTVNGPRKQVSGPERTIPITREEKPAVTAAPKK
notes: also called Δ HspB5; Δ mutant of HspB5; source: E. coli BL21(DE3) pLysS, purified (ammonium sulfate, HiTrap Q, Superdex 200)
With B6, the correlation coefficient in data set [1] turned out to be 0.98. Besides, in data set [2], the binding result was “binds”.

These data come from article PMC7352286, “The Heterooligomerization of Human Small Heat Shock Proteins Is Controlled by Conserved Motif Located in the N-Terminal Domain” (International Journal of Molecular Sciences, 2020).
